# Patent publication US20230203162A1 (NUMAB THERAPEUTICS, published 2023)
# Tests used:
# [1] = target: T1, plasma-membranous human MSLN on cell lines (H226, HPAC, H292, OVCAR-3, MeT-5A) (human, UniProt Q13421 296-598); experiment: cELISA on H226 cells, HRP-Protein L
# T1 construct: whole, on cells; also called human MSLN on H226 cells; mesothelin on target cells
# [2] = target: T2, recombinant human MSLN (purchased from Peprotech) (human, UniProt Q13421 296-598, limits assumed); experiment: SPR, MSLN immobilized on CM5, scFv as analyte, 1:1 Langmuir
# T2 construct: Bought protein; also called recombinant human mesothelin
# [3] = target: biotinylated MSLN (human MSLN in the MSLN/MUC16 competition ELISA) (human, UniProt Q13421 296-598, limits assumed, biotinylated); experiment: competition ELISA, scFv titrated with biotinylated MSLN; competitor coated MUC16
# [4] = target: T1, plasma-membranous human MSLN on cell …; experiment: flow cytometry on OVCAR-3 cells, protein L-PE, 4PL fit
# [5] = target: human serum albumin (hSA, Sigma-Aldrich A3782) (human, UniProt P02768 25-609); experiment: SPR, hSA amine-coupled to CM5, antibody injected, pH 5.5, 1:1 Langmuir
# [6] = target: T2, recombinant human MSLN (purchased from …); experiment: SPR (Biacore T200), human MSLN; which of the two formats (MSLN immobilized / antibody captured) not given
# [7] = target: T1, plasma-membranous human MSLN on cell …; experiment: flow cytometry on H226 cells, protein L-PE, 4PL fit
# [8] = target: T3, human recombinant CD3ε protein (Sino Biological) (human, UniProt P07766 23-126); experiment: SPR, CD3ε amine-coupled to CM5, antibody injected
# T3 construct: Bought protein; also called recombinant human CD3ε; human CD3ε
# [9] = target: T1, plasma-membranous human MSLN on cell …; experiment: flow cytometry on Met-5A cells, protein L-PE, 4PL fit
# [10] = target: soluble mesothelin (sMSLN); experiment: cell-based or functional assay
# [11] = target: T1, plasma-membranous human MSLN on cell …; experiment: cell-based or functional assay
EC50 [1],"rel. EC50 (EC50, Amatuximab/EC50, scFv) [1]","rel. Maximum binding (OD450-690 nm, scFv/OD450-690 nm, Amatuximab) [1]",Kd [2],koff [2],kon [2],IC50 [3],Maximum inhibition at highest sample conc. [3],"rel. IC50 (IC50, Amatuximab/IC50, scFv) [3]",EC50 [4],max. binding (MFI) [4],Kd [5],koff [5],kon [5],EC50 [7],max. binding (MFI) [7],Kd [8],EC50 [9],max. binding (MFI) [9],Binder,further results
0.29 nM,0.52 ratio,0.61 ratio,0.177 nM,0.00013 s⁻¹,735000 M⁻¹ s⁻¹,0.05 nM,99.3%,0.29 ratio,–,–,–,–,–,–,–,–,–,–,"anti-MSLN scFv PRO1922 (scFv, also called 54-21-H03-sc01) scFv: DIQMTQSPSSLSASVGDRVTITCQASESIYSSLAWYQQKPGKAPKLLIYLASTLASGVPSRFSGSGSGTDFTLTISSLQPEDFATYYCQSTDYTTSTHRNSFGTGTKVTVLGGGGGSGGGGSGGGGSGGGGSEVQLVESGGGLVQPGGSLRLSCAASGFSFSTTYYMCWVRQAPGKGLEWIGCTNTASSVRTYYATWAKGRFTISRDNSKNTVYLQMNSLRAEDTAVYYCARDMGFADYALNLWGQGTLVTVSS",–
–,–,–,–,–,–,–,–,–,5.55 nM,148000 MFI,6.45 nM,0.00149 s⁻¹,231000 M⁻¹ s⁻¹,0.447 nM,609000 MFI,6.45 nM,0.0877 nM,12000 MFI,"PRO2562 (MATCH4) (other, Heterodimer) chain 1: ALQMTQSPSSLSARVGDRVTIKCQASQSISNYLAWYQQKPGKPPKFLIYDASDLASGVPSRFSGSGSGRDFTLTISSLQPEDFATYYCQQVYDSNNVENVFGCGTKVTVLGGGGGSGGGGSGGGGSGGGGSQSQLVESGGGLVQPGGSLRLSCAVSGFSLSSYAMGWVRQAPGKCLEYIGYISKIGTTYYASWAKGRFTISKDNSKNTVYLQMNSLRAEDTAVYFCARGSSSGGYLDDGFDPWGQGTLVTVSSGGGGSGGGGSEVQLVESGGGLVQPGGSLRLSCAASGFSLSSYDMSWVRQAPGKGLAWIGASYASGPTYYASWAKGRFTISRDNSKNTVYLQMCSLRAEDTATYFCARGGWTGTSHSNIWGQGTLVTVSSGGGSGGGSGGGSGEVQLVESGGGLVQPGGSLRLSCAASGFSLSSYAMNWVRQAPGKCLEWIGHINAGDIAYYATWAKGRFTISRDNSKNTVYLQMNSLRAEDTAVYFCARGAGGFSTGPFKLWGQGTLVTVSS chain 2: ALQMTQSPSSLSARVGDRVTIKCQASQSISNYLAWYQQKPGKPPKFLIYDASDLASGVPSRFSGSGSGRDFTLTISSLQPEDFATYYCQQVYDSNNVENVFGCGTKVTVLGGGGGSGGGGSGGGGSGGGGSQSQLVESGGGLVQPGGSLRLSCAVSGFSLSSYAMGWVRQAPGKCLEYIGYISKIGTTYYASWAKGRFTISKDNSKNTVYLQMNSLRAEDTAVYFCARGSSSGGYLDDGFDPWGQGTLVTVSSGGGGSGGGGSAFELTQSPSSLSASVGDRVTITCQASESINSRLAWYQQKPGQPPKLLIYDASDLTSGVPSRFSGSGSGTDFTLTISCLQPEDFATYYCQGYGGSSTTTFGCGTKLTVLGGGSGGSGGSGGSGDIQMTQSPSSLSASVGDRVTITCQSSQSVFSNNYLAWFQQKPGQSPKRLIYSASTLASGVPSRFSGSGSGTDFTLTISSLQPEDFATYYCLGSYACSSADCYVFGTGTKVTVLG",Kd [6]: 1.39 nM; koff [6]: 0.000571 s⁻¹; kon [6]: 410000 M⁻¹ s⁻¹
3.05 nM,0.026 ratio,0.55 ratio,0.322 nM,0.000873 s⁻¹,2.72e+06 M⁻¹ s⁻¹,–,–,–,–,–,–,–,–,–,–,–,–,–,"anti-MSLN scFv PRO2306 (scFv, also called 54-32-A07-sc06; PRO1925-S14R-T87R-T22K) scFv: ALQMTQSPSSLSARVGDRVTIKCQASQSISNYLAWYQQKPGKPPKFLIYDASDLASGVPSRFSGSGSGRDFTLTISSLQPEDFATYYCQQVYDSNNVENVFGTGTKVTVLGGGGGSGGGGSGGGGSGGGGSQSQLVESGGGLVQPGGSLRLSCAVSGFSLSSYAMGWVRQAPGKGLEYIGYISKIGTTYYASWAKGRFTISKDNSKNTVYLQMNSLRAEDTAVYFCARGSSSGGYLDDGFDPWGQGTLVTVSS",–
1.13 nM,0.07 ratio,0.78 ratio,0.444 nM,0.00138 s⁻¹,3.11e+06 M⁻¹ s⁻¹,–,–,–,–,–,–,–,–,–,–,–,–,–,"anti-MSLN scFv PRO2309 (scFv, VL/VH interdomain disulfide variant; also called 54-32-A07-sc09; PRO1925-S14R-T87R-T22K-DIS) scFv: ALQMTQSPSSLSARVGDRVTIKCQASQSISNYLAWYQQKPGKPPKFLIYDASDLASGVPSRFSGSGSGRDFTLTISSLQPEDFATYYCQQVYDSNNVENVFGCGTKVTVLGGGGGSGGGGSGGGGSGGGGSQSQLVESGGGLVQPGGSLRLSCAVSGFSLSSYAMGWVRQAPGKCLEYIGYISKIGTTYYASWAKGRFTISKDNSKNTVYLQMNSLRAEDTAVYFCARGSSSGGYLDDGFDPWGQGTLVTVSS",–
1.01 nM,0.11 ratio,0.58 ratio,0.488 nM,0.000794 s⁻¹,1.63e+06 M⁻¹ s⁻¹,0.14 nM,99.2%,0.11 ratio,–,–,–,–,–,–,–,–,–,–,"anti-MSLN scFv PRO1925 (scFv, also called 54-32-A07-sc02) scFv: ALQMTQSPSSLSASVGDRVTITCQASQSISNYLAWYQQKPGKPPKFLIYDASDLASGVSSRFSGSGSGTDFTLTISSLQPEDFATYYCQQVYDSNNVENVFGTGTKVTVLGGGGGSGGGGSGGGGSGGGGSQSQLVESGGGLVQPGGSLRLSCAVSGFSLSSYAMGWVRQAPGKGLEYIGYISKIGTTYYASWAKGRFTISKDNSKNTVYLQMNSLRAEDTAVYFCARGSSSGGYLDDGFDPWGQGTLVTVSS",–
–,–,–,–,–,–,–,–,–,10.7 nM,198000 MFI,5.71 nM,0.0016 s⁻¹,280000 M⁻¹ s⁻¹,1.08 nM,686000 MFI,5.71 nM,0.157 nM,14500 MFI,"PRO2660 (MATCH4) (other, Heterodimer) chain 1: DIQMTQSPSSLSASVGDRVTITCQASESIYSSLAWYQQKPGKAPKLLIYLASTLASGVPSRFSGSGSGTDFTLTISSLQPEDFATYYCQSTDYTTSTHRNSFGTGTKVTVLGGGGGSGGGGSGGGGSGGGGSEVQLVESGGGLVQPGGSLRLSCAASGFSFSTTYYMCWVRQAPGKGLEWIGCTNTASSVRTYYATWAKGRFTISRDNSKNTVYLQMNSLRAEDTAVYYCARDMGFADYALNLWGQGTLVTVSSGGGGSGGGGSEVQLVESGGGLVQPGGSLRLSCAASGFSLSSYDMSWVRQAPGKGLAWIGASYASGPTYYASWAKGRFTISRDNSKNTVYLQMNSLRAEDTATYFCARGGWTGTSHSNIWGQGTLVTVSSGGGSGGGSGGGSGEVQLVESGGGLVQPGGSLRLSCAASGFSLSSYAMNWVRQAPGKCLEWIGHINAGDIAYYATWAKGRFTISRDNSKNTVYLQMNSLRAEDTAVYFCARGAGGFSTGPFKLWGQGTLVTVSS chain 2: DIQMTQSPSSLSASVGDRVTITCQASESIYSSLAWYQQKPGKAPKLLIYLASTLASGVPSRFSGSGSGTDFTLTISSLQPEDFATYYCQSTDYTTSTHRNSFGTGTKVTVLGGGGGSGGGGSGGGGSGGGGSEVQLVESGGGLVQPGGSLRLSCAASGFSFSTTYYMCWVRQAPGKGLEWIGCTNTASSVRTYYATWAKGRFTISRDNSKNTVYLQMNSLRAEDTAVYYCARDMGFADYALNLWGQGTLVTVSSGGGGSGGGGSAFELTQSPSSLSASVGDRVTITCQASESINSRLAWYQQKPGQPPKLLIYDASDLTSGVPSRFSGSGSGTDFTLTISSLQPEDFATYYCQGYGGSSTTTFGCGTKLTVLGGGSGGSDIQMTQSPSSLSASVGDRVTITCQSSQSVFSNNYLAWFQQKPGQSPKRLIYSASTLASGVPSRFSGSGSGTDFTLTISSLQPEDFATYYCLGSYACSSADCYVFGTGTKVTVLG","Delta 0-50 ng/mL sMSLN (x-fold change in H226 killing potency) [10]: 12 fold; Delta 0-500 ng/mL sMSLN (x-fold change in H226 killing potency) [10]: 85.1 fold; Fold-diff Window (mean Met-5A EC50 / mean H226 EC50) [11]: 1.7 fold; average mean H226 EC50, cell killing (LDH release) [11]: 0.0285 nM; average mean Met-5A EC50, cell killing (LDH release) [11]: 0.0485 nM"
